Measurements from patent US20020106678A1 (published 2002).

What was measured:
[1] = target: T1, human G protein β2 subunit (human, UniProt P62879 1-340); assay: tryptic proteolysis protection assay of co-translated β and γ subunits (rabbit reticulocyte lysate, SDS-PAGE)
Method: (§1) βγ interaction was assessed by a tryptic proteolysis assay. Plasmid DNA (1 μg) for each of the β and γ subunits were co-transcribed and co-translated in the TNT-coupled rabbit reticulocyte lysate system (Promega, Madison, Wis.). The plasmid DNA for each of the γ subunits was linearized to limit the generation of translated products of higher molecular weight. […] To increase levels of the γ₁₀ and γ₁₁ subunits 2 μg of capped RNA were added to the co-transcribed β-γ mix. Alternatively, γ₁₀ and γ₁₁ subunits that had been translated separately were added to the co-translated β-γ mix. For tryptic digestion, 5 or 10 μl aliquots of the co-translated β-γ mix were digested by addition of 1 μl trypsin (1 μg) in a final volume of 20 μl (with 50 mM Na-HEPES, pH 8.0) After incubation for 1 hour at 30° C., the digestions were stopped by addition of Laemmli sample buffer and boiling for 3 minutes. Protected fragments of β were visualized by running samples on 15% SDS-PAGE gels. After electrophoresis, gels were fixed in 40% methanol/10% acetic acid mix, soaked in ENHANCE (DuPont-NEN, Boston, Mass.), and dried. The dried gels were exposed for 8 to 48 hours at −80° C.

[2] = target: T1, human G protein β2 subunit; assay: tryptic proteolysis protection assay of co-translated β and γ subunits (βγ dimer formation)
Method: as §1

T1 sequence (P62879 whole entry): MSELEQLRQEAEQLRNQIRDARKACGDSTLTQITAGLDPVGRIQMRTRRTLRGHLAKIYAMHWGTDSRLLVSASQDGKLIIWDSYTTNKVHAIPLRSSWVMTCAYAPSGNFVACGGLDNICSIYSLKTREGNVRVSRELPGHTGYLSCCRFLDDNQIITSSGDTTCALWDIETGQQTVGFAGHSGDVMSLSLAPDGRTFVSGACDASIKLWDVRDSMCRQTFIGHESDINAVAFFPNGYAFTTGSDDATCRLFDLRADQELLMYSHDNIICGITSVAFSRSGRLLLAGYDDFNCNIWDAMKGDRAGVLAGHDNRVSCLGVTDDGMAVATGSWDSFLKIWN

binding result [1]	binding result [2]	Binder
no binding		human G protein γ11 subunit (other, modified by a farnesyl group (residue not stated)) MPALHIEDLPEKEKLKMEVEQLRKEVKLQRQQVSKCSEEIKNYIEERSGEDPLVKGIPEDKNPFKEKGSCVIS
	binds	human G protein γ4 subunit (other, modified by a geranylgeranyl group (residue not stated)) MKEGMSNNSTTSISQARKAVEQLKMEACMDRVKVSQAAADLLAYCEAHVREDPLIIPVPASENPFREKKFFCTIL
